Laboratory results from patent publication US20040039175.

Tested on: HIV-AB-KOX (synthetic construct)
Experiment: cell_activity
Conditions: LTR-luciferase, Jurkat, Tat+PMA+PHA

“AGCTTTCTACAAGGGACTTTCCGCTGGGGACTTTCCAGGGAGGCGTGGCCTGGGCGGGACTGGGGAGTGGCGTCCCTCAGATGCTGCATATAAGCAGCTGCTTTTTGCCTGTACTGGGTCTCTCTGGTTAGACCAGATCTGAGCCTGGGAGCTCTCTGGCTAACTAGGGAACCC (double strand) [HIV-1 LTR reporter]” gave an activity of 96 % inhibition.
